Assays:
[1] = target: murine IL-6 receptor (murine) (UniProt P22272)
[2] = target: recombinant human IL-6 (human)

Substance	% Inhibition of B9 cell proliferation driven by 10 pg/ml hIL-6 (MTT, Absorbance570) [1] [% inhibition]	% Inhibition of B9 cell proliferation driven by 1:40 vIL-6 sup (MTT, Absorbance570) [1] [% inhibition]	% Inhibition of B9 cell proliferation driven by 10 pg/ml hIL-6 (MTT, Absorbance570) [2] [% inhibition]
functionally neutralizing monoclonal antibody directed against the murine IL-6R (D7715A7, Pharmigen)	80	53.8	–
monoclonal antibody directed against murine IL-2 (S4B6, Pharmigen)	–	–	23.4
